Measured values: the supplement of paper PMC9170038

Test system: MS2 coat protein
Test: apparent KD of MS2 coat protein; designed switch direction (-1 OFF switch, 1 ON switch): -1; higher = weaker reporter binding
Summary of the method: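 An oligonucleotide input, 200 uM small-molecule ligand, or no input was present during titration of SNAP-549-labelled MS2 coat protein, which was doubled from 0.7 or 1.5 nM to 3 µM. Designed RNA switches had been transcribed on Illumina chips by stalled E. coli RNA polymerase. Apparent KD per design is the median over clusters of curves fitted to normalised cluster fluorescence.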

[1] = Eterna round: R95, input ligand: FMN 200 uM
[2] = Eterna round: R95, input ligand: microRNA oligo, concentration not stated
[3] = Eterna round: R95, input ligand: none
[4] = input ligand: microRNA oligo, concentration not stated

Sequence	apparent KD of MS2 coat protein [1]	apparent KD of MS2 coat protein [2]	apparent KD of MS2 coat protein (input ligand: FMN 200 uM)	apparent KD of MS2 coat protein (input ligand: none)	apparent KD of MS2 coat protein [3]	apparent KD of MS2 coat protein [4]
AGUAGAUCUACGCUUGCGUGGAUCUGCAAUGUAGGUGUUACAUGAGGAUCACCCAUGUCCUCAUUUGCUCGUCUUAG [JL turnoff v2 99.10] (puzzle: Sensor v3, turn-off variant 2)	259 nM	810 nM				
GAAAAGAGAGGAUAUACUUGAGGAUCACCCAAGUAGGCGGUAACCGCCACGGGCCAGAGUAGAAGGCUCAAAAC [Beceanlave] (Eterna round: R97, puzzle: Exclusion 3)			141 nM	32.2 nM		
GCCGAUUAAGUCAGGAUAUACCUAUGGAUACAUAGGUAGAAGGGACAUGAGGAUCACCCAUGUUCCUCAUCGGC [Fiskers BMX 4 - 12] (puzzle: Brourd's mod of Exclusion 4)	41.6 nM	13.5 nM			16.9 nM	
AUGAGACAUGAGGAUCACCCAUGUGAGGAUAUGUAUGGAUGGUAGAAAGAAUGAAAGAACAGAAGGCACGUAGA [JR_Exclu1_Sub061] (puzzle: Exclusion 1)	143 nM	150 nM			210 nM	
CUGCUCCGUGUAGGAUAUGCAUACUCCCACUAUGCAGAAGGACAUGAGGAUCACCCAUGUAUGUUAUUAUCACGUGUAGCGUAC [Design 16] (Eterna round: R96, puzzle: Exclusion NG 1)						21.7 nM
UUAAUUUAAGGGAUAGAUCAUUACAUGAGGAUCACCCAUGUUGAGGAUAUCAGCUCGUUUAGAGCUGAGAAGGCAACAAUAGGG [ExNG3/14-A2] (Eterna round: R96, puzzle: Exclusion NG 3)			58.9 nM	163 nM		60 nM
ACAUGAGGAUCACCCAUGUCAGGCUGGUCCGCUCCGGCUGUUGAGGAUAUAGCUCGGUGUCCGCGCUAGAAGGUGAGGGCCGGC [Aenatbe mod 32] (Eterna round: R96, puzzle: Exclusion NG 3)			25.3 nM	24.6 nM		19.3 nM
AUAGGCUUUUAUAUCCUUAACAUGAGGAUCACCCAUGUUCGUCUUAUGAUGGUCUGAUCCCUGAGGAUCGGACCGUU [JL-sv1-2.05 Brourd Mod] (puzzle: Sensor v3, turn-off variant 1)	32.3 nM	134 nM			35.4 nM	
AUAAUGUCAGGAUAUCAGUCGUACAGCUUCGGCUGUACGACUGAGAAGGGACAUGAGGAUCACCCAUGUGGUCA [E4/6-A1] (Eterna round: R97, puzzle: Exclusion 4)			61 nM	50.9 nM		
GUAAAGUGAGGAUAUGGUAAAUUAAUUAUUUAGUAAUUAAUCCAGAAGGCACAUGAGGAUCACCCAUGUAAAUG [Mat - Exclusion 4 - D95] (puzzle: Exclusion 4)		32.1 nM				
GCAGCAUAGUUUACUGACUGUUACAUGAGGAUCACCCAUGUUCAGGAUAUGGUCUGGAUUACAGGCCAGAAGGGAACAAGCUGC [Eli exng3 - 030] (Eterna round: R96, puzzle: Exclusion NG 3)			9.17 nM	10.6 nM		10.9 nM
CAGUACUGAGGAUAUACAUGAGGAUCACCCAUGUGAUUGAGUGCACGCGUACGUGUACGUAGAAGGCAGUACUG [JL 3.27 m11] (Eterna round: R97, puzzle: Exclusion 3)			194 nM	18.1 nM		
AUUUAAUUUAAUAAGAUCACAUGAGGAUCACCCAUGUAUAUAUAGGAUAUCAGCUCGUUUAGAGCUGAGAAGGAUAUAUACAUG [ExNG3/8-A2] (Eterna round: R96, puzzle: Exclusion NG 3)			22.6 nM	36.6 nM		20.2 nM
CAGGAAAUAGAGGAUAUAGGAGUCGAUAGACUCCUAGAAGGCUAUACAUGAGGAUCACCCAUGUGUCCUACCUG [Fiskers Ex 6 - 69] (puzzle: Exclusion 6)		14.6 nM				
CUCCUCAUGACGCCUAAAGACAUGAGGAUCACCCAUGUACAGGCUUUUUGUCGUCUUAUAAUAAAACCGAGGAUGCG [Edmate] (puzzle: Sensor v3, turn-off variant 1)	19.2 nM	45.9 nM			20.1 nM	
GUUAACGUAGGAUAUUAGUACAUGAACAUGAGGAUCACCCAUGUGAGGUAGGUCUAAGAAUAAGAAGGGCGAAGAA [EX5 #27] (Eterna round: R97, puzzle: Exclusion 5)			108 nM	185 nM		
GAUCAUGCAGGAUAUACAUUUUCCAUGAAAACAUGGUCCUCACAUGAGGAUCACCCAUGUAGAAGGGCAUGAUC [Omei Ex2 A30] (Eterna round: R97, puzzle: Exclusion 2)			37.6 nM	855 nM		

Sequence	apparent KD of MS2 coat protein [1]	apparent KD of MS2 coat protein [2]	apparent KD of MS2 coat protein (input ligand: FMN 200 uM)	apparent KD of MS2 coat protein (input ligand: none)	apparent KD of MS2 coat protein [3]	apparent KD of MS2 coat protein [4]
CGUGACUGAGGAUAUCUAUGAUGUCACAUGAGGAUCACCCAUGUCCAGCGAAAGCUGGAGGGAGAAGGCAGUCACG [Fiskers Ex 5 - 31] (puzzle: Exclusion 5)	34.5 nM	122 nM			115 nM	
GGCCGAGAACAGCUCCGCGCUGCCCUCAGCCGCUCAUUUACAUGAGGAUCACCCAUGUUUUUUGCUUGUCUUGUUUC [Antibe] (puzzle: Sensor v3, turn-off variant 2)	20.3 nM	104 nM			22.3 nM	
ACGCCGCAAGGAUAUCGUAAAGCAGACAUGAGGAUCACCCAUGUGAUAUCAGAAAGGCCACGAGAAGGUGCACAAG [Tigeor] (puzzle: Exclusion 5)	32.4 nM	20.3 nM			21.3 nM	
UUUUUUGUUGUGAGGAUAUCGUAUUCUUUUUGUUACGAGAAGGCACAUGAGGAUCACCCAUGUUUCUUGAUGUU [JR_BMOE4_Sub067] (puzzle: Brourd's mod of Exclusion 4)		15.3 nM				
AUUAAUCAUGUAGGAUAUGCGUGGCGAAGCUAUGCAGAAGGACAUGAGGAUCACCCAUGUUCUAGCGUCUGCGUACAGAUGCUA [JL ENG1 1.37] (Eterna round: R96, puzzle: Exclusion NG 1)			349 nM	37.6 nM		29.5 nM
UAAGAUUACCGAGGAUAUGGUAAUUUUUAUUAACCAGAAGGCGGACUCAACAUGAGGAUCACCCAUGUAUAAAGGGUAUUAGUU [JR_ExcNG1_Sub039] (Eterna round: R96, puzzle: Exclusion NG 1)			87.5 nM	98.7 nM		70.7 nM
AUAGUGUUAGGAUAUGCUUAUGCUGGGUAGUCCAGUAUGGAGUAGAAGGGACAUGAGGAUCACCCAUGUGCUCA [EX4 #40] (Eterna round: R97, puzzle: Exclusion 4)			18.6 nM	20.5 nM		
UUGGAUAAUGUAGGAUAUGCAAGGCGAACCUAAGCAGAAGGACAUGAGGAUCACCCAUGUAAUGCGGUCUGCGUACAGAUCGCA [12th something] (Eterna round: R96, puzzle: Exclusion NG 1)			79 nM	22.1 nM		29 nM
ACAGGUUUCAUAGGAUAUCUCUGACUAUGGCACUCCUUGUGUCCACAUGAGGAUCACCCAUGUCGAGAGAAGGGUGCACCUGCG [Arenena] (Eterna round: R96, puzzle: Exclusion NG 2)			147 nM	65.7 nM		64.9 nM
CCGAGCAAGGUGAGGAUAUUAAGAGCUACAGAGCAUGAGAAGGCACAUGAGGAUCACCCAUGUUACUACAGGGA [Eternabot (L1) Solution 66] (Eterna round: R97, puzzle: Brourd's mod of Exclusion 4)			54.9 nM	54 nM		
GUCAUCAAACAUGGGUUAAACAUGAGGAUCACCCAUGUUAUCAAGUUUUUUGCUCGUCUUAUAAUAAGUUUGAUGAC [Antenna 12 - Jieux - Sensor, turn-off variant 1] (Eterna round: R97, puzzle: Sensor, turn-off variant 1)			35.7 nM	41 nM		
GGAAAGCAAGGAUAUACGAGGAGAAGGAGGAAAGUUAAAGGACAUGAGGAUCACCCAUGUAGAAGGUGCGAGAG [JR_Exclu2_Sub041] (puzzle: Exclusion 2)	30 nM	30.7 nM			34.6 nM	
AAGUACCGUCACGAAAGUGAUGGUACAGCAAGCAAAUGUACAUGAGGAUCACCCAUGUCCUCAAUUGCUCGUCUUAU [Sensor 3 - 58] (puzzle: Sensor v3, turn-off variant 2)	81.7 nM	181 nM			87.4 nM	
AGCUAGAUAGGAUAUGCCCGGGAUAACAUGAGGAUCACCCAUGUGACCGAAUCAAAUCCAGCAGAAGGGUUUGGGA [Mod of ViennaUCT 13 - Jieux - Exclusion 5] (Eterna round: R97, puzzle: Exclusion 5)			22 nM	18.6 nM		
ACCUAAAAGCUAGGAUAUACAUGAGGAUCACCCAUGUACACAGGAAGACUAACCUGUGGACUCAUGUAGAAGGAGCAUGACAAA [Raengearle] (Eterna round: R96, puzzle: Exclusion NG 2)			117 nM	283 nM		349 nM
CCUCUGUGAGGAUAUCGCGGCGGGCUAACUCGCAAACAAAACGAGAAGGCACAUGAGGAUCACCCAUGUAGGUG [Cetiis] (Eterna round: R97, puzzle: Exclusion 4)			39.1 nM	262 nM		
UGAGUGCUGCGAGGAUAUACAUGAGGAUCACCCAUGUAUUAGUGUGAGGCUUUGCCUCACACAAUGUAGAAGGCGCAGUACUCU [JL ENG2 1.03] (Eterna round: R96, puzzle: Exclusion NG 2)			5.74 nM	13.1 nM		10.3 nM
